From publication PMC3836737, “Brd4 Is Displaced from HPV Replication Factories as They Expand and Amplify Viral DNA” (PLoS Pathogens, 2013)
Positions count from the first letter of the chain named.

B1: HPV16 E2 I73L (natural protein)
chain: METLCQRLNVCQDKILTHYENDSTDLRDHIDYWKHMRLECAIYYKAREMGFKHINHQVVPTLAVSKNKALQALELQLTLETIYNSQYSNEKWTLQDVSLEVYLTAPTGCIKKHGYTVEVQFDGDICNTMHYTNWTHIYICEEASVTVVEGQVDYYGLYYVHEGIRTYFVQFKDDAEKYSKNKVWEVHAGGQVILCPTSVFSSNEVSSPEIIRQHLANHPAATHTKAVALGTEETQTTIQRPRSEPDTGNPCHTTKLLHRDSVDSAPILTAFNSSHKGRINCNSNTTPIVHLKGDANTLKCLRYRFKKHCTLYTAVSSTWHWTGHNVKHKSAIVTLTYDSEWQRDQFLSQVKIPKTITVSTGFMSI
modifications: 35S-labeled
notes: source: in vitro translated (TNT Coupled Reticulocyte Lysate System, Promega), 35S-labeled
B2: HPV16 E2 R37K (natural protein)
chain: B1 chain with R37K, L73I
modifications: 35S-labeled
notes: as for B1

Biological target: T1, Purified FLAG-tagged Brd4 (UniProt O60885 1-1362)
T1 construct: source: purified, described previously [13]
Assay: pull-down
Settings: one partner purified

Row | Binder | percent of wildtype E2 binding
1 | B1 | < 20 % of wildtype E2 binding
2 | B2 | < 20 % of wildtype E2 binding
